The DeepSol protein solubility set

Test: soluble on expression in E. coli; label from the status in PepcDB or PDB records

Row | Sequence | soluble on expression in E. coli
1 | MSSNPSSVEKKLLHYTGKAIADFNMIQRGDRVMVCLSGGKDSFTLLTILNQLRIKSGNKFEIFAFTLDQAQPGWNDACLRQWLAEKSIPHEILTRDTYSIVKEKIPEGKTYCSLCSRLRRGIIYRYAEENGFNKIALGHHRDDLVRTLMMSILYNGDIRSMPPKLLSDNKKHIVIRPLCYVQEKDIITFASEQAFPIIPCNLCGSQENLMRKKVASLIDQLAIENPKVPSNMLHALQSLKPSQLMDQNFWNFKNLEDGLETTQSIQCEEVFNAQEFELEDEKI | not soluble
2 | RKLHAEELLRLAMAHLRNQGKPVRIVDIAAGHGRYILESLRGVEPLPESILLRDYSDINVRDGSLLIEQKDLEDIARFVKGDAFDRNDLATLDPKPTLAVVSGLYELFSSNQMVGDSLAGLAAAVEPGGYLVYTGQPWHPQLELIARALTSHREGQAWVMRRRSQSEMDQLVEAAGFRKITQRVDEWGIFTVSLAQRIQ | not soluble
3 | SAAHQMDSITYSNNVTQQYIQPQSLQDISAVEDEIQNKIEAARQESKQLHAQINKAKHKIQDASLFQMANKVTSLTKNKINLKPNIVLKGHNNKISDFRWSRDSKRILSASQDGFMLIWDSASGLKQNAIPLDSQWVLSCAISPSSTLVASAGLNNNCTIYRVSKENRVAQNVASIFKGHTCYISDIEFTDNAHILTASGDMTCALWDIPKAKRVREYSDHLGDVLALAIPEEPNSENSSNTFASCGSDGYTYIWDSRSPSAVQSFYVNDSDINALRFFKDGMSIVAGSDNGAINMYDLRSDCSIATFSLFRGYEERTPTPTYMAANMEYNTAQSPQTLKSTSSSYLDNQGVVSLDFSASGRLMYSCYTDIGCVVWDVLKGEIVGKLEGHGGRVTGVRSSPDGLAVCTGSWDSTMKIWSPGYQ | not soluble
4 | MGHHHHHHSHMEKSAPSIILNHWCVTWQGHHFLCRNLSNIKILNRRNGYTTLDLPLTLGDLTQYRLAHGLSENLMALSPYSWTIPFLVSSSETPGIELLPKVINDFGTPLSLAIKTNLPSIPAHQLLFYIIFLRPSPLTSMSCYARPLSLASTPSTNGLCQSVSVLDNKPGLLITTPLHRDPASGKYTSNVQSPTTFNLFRVLYIKLSGEEGMVSQKVKHLTIDKDSLQEGFLQLCLNMCGVSYETLQCEILLELVQGPTNFIFPAAFPPPVSLPHRNCIELTCDTERCLKPGDVMKLKHRLLYELGQRGDTPQNAFLIVGAHSPETVWISPSLWLPGQPLYINIINLSHKPLLLSRHSILALAIPISYTRAPASAHEATDTTICYSGNSRVLTCGAAHVLEAHFKHPPITSRAITDGGESPMEWQTL | not soluble
5 | MGVLLREALRSMCVNNQWSYAVFWKIGCQNSSLLIWEECYNETESSSNPRRLCGLGVDTQGNEKVQLLTNRMMLNNRIILVGEGLVGRAAFTGHHQWILANSFNRDVHPPEVINEMLLQFSAGIQTVAVFPVVPHGVVQLGSSLPIMENLGFVNDVKGLILQLGCVPGALLSENYRTYEPAADFIGVPVSRIIPSQGHKILQSSAFVAETSKQHFNSTGSSDHQMVEESPCNLVDEHEGGWQSTTGFLTAGEVAVPSNPDAWLNQNFSCMSNVDAAEQQQIPCEDISSKRSLGSDDLFDMLGLDDKNKGCDNSWGVSQMRTEVLTRELSDFRIIQEMDPEFGSSGYELSGTDHLLDAVVSGACSSTKQISDETSESCKTTLTKVSNSSVTTPSHSSPQGSQLFEKKHGQPLGPSSVYGSQISSWVEQAHSLKREGSPRMVNKNETAKPANNRKRLKPGENPRPRPKDRQMIQDRVKELREIIPNGAKCSIDALLERTIKHMLFLQNVSKHSDKLKQTGESKIMKEDGGGATWAFEVGSKSMVCPIVVEDINPPRIFQVEMLCEQRGFFLEIADWIRSLGLTILKGVIETRVDKIWARFTVEASRDVTRMEIFMQLVNILEQTMKCGGNSKTILDGIKATMPLPVTGGCSM | not soluble
6 | MCANIGVDPLASNKGFWAELLGIGDFYYELGVQIIEVCMLTRSHNGGLISLQELCNHLRQRRKKDREAVTEDDCLRAISKLKVLGSGFEVITIGKKKLVRSVPTELNKDHNQILELAQGQGFVIVEEVQRRLSWTSGRVIDALETLLEEGLAMIDNGHKDGKCRYWFPCVSSVYSSIGSDT | soluble
7 | MEQLTLQVEGMSCGHCVNAIESSVKELNGVEQVKVQLAEGTVEVTIDSSVVTLKDIVAVIEDQGYDVQ | not soluble
8 | ISEFGSMNVILSIDQSTQSTKVFFYDEELNIVHSNNLNHEQKCLKPGWYEHDPIEIMTNLYNLMNEGIKVLKDKYTSVIIKCIGITNQRETVIIWDRITGKPLYNAIVWLDTRVEELVTEFSAKYNNNDIQKKTGTYFNTYFSAFKILWLIQNNPEIKQKIDDGTAVIGNINTWLIFNLTKGNCYTDVTNASRTLLMDINTLQWDEKMCKIFNITNMSVLPEIKSNCSNFGLVKSEHVPDYLNIPITGCIGDQQSACIGQAIFDEGEAKCTYGTGVFLLINTGEKVVYSTCGLITTICYKFNDNDKPKYALEGSIGTAGSGVSWLLKNKLIDDPSEASDIMEKCENTTGVIFVPAFSGLYAPRWRSDARASIYGMTFNTERSHIVRALLEGIAFQLNEIVDSLTSDMGIEMLHVLRCDGGMTKNKPFMQFNSDIINTKIEVSKYKEVTSLGAAVLAGLEVKIWDSLDSVKSLLRRSDAVFHSKMDDKKRKKKTSEWNKAVERTLIQL | soluble
9 | MSLTEKFRPTLKDVARQAGVSIATASRALADNPAVAASTRERIQQLASDLGYRANAQARALRSSRSNTIGVIVPSLINHYFAAMVTEIQSTASKAGLATIITNSNEDATTMSGSLEFLTSHGVDGIICVPNEECANQLEDLQKQGMPVVLVDRELPGDSTIPTATSNPQPGIAAAVELLAHNNALPIGYLSGPMDTSTGRERLEDFKAACANSKIGEQLVFLGGYEQSVGFEGATKLLDQGAKTLFAGDSMMTIGVIEACHKAGLVIGKDVSVIGFDTHPLFALQPHPLTVIDQNVEQLAQRAVSILTELIAGTVPSVTKTTIPTALIHRESIINSTLRKEGHHHHHH | soluble
10 | LVSITDLQGRILYANDNFCAVSRYGREELVGQDHRIVNSGYHGKAYIRDMWRTISRGNIWQGEFCNRRKDGTRYWVDSTIVPLMDNAGKPRQYISIRRDITAQKEAEAQLARLKQAMDANSEMILLTDRAGRIIYANPALCRFSGMAEGELLGQSPSILDSPLADQETLAAMQEALQAGQPWSGRLLNRRRTGPAPHDAEDYWAEISTTPIHTDGNGLVGYVQIQHD | soluble
11 | MSTTHNVPQGDLVLRTLAMPADTNANGDIFGGWLMSQMDIGGAILAKEIAHGRVVTVRVEGMTFLRPVAVGDVVCCYARCVQKGTTSVSINIEVWVKKVASEPIGQRYKATEALFKYVAVDPEGKPRALPVE | soluble
12 | MTAMDHQFPSWIVVNESTSISREQLNYLLETYNVFYENQKNLHILYGQTEDGQLIVEGMLDIFWGVKRPIQLKIQDEKQISSFDLLNTPETFSSKGRMTRWGEFDDLYRISELDRTHVLASEARHSPEDYLSYHSTLTPYADEEPESPLLYRTMSEAESPLLYRTMSEAALVRKRMRAPEMYRKDRMGVLSNHRASINGHVYDHETSIFTPTFGSETKVRANSIMRTEEVIKQLLQKFKIENSPRDFALYIIFGTGEQRKLKKTDVPLLQRLLQGPSKSNARIFLMDKDAEEISRDVAPYINFHFSFLESILQRLDEEEKMEIERIMAKFNTERAFILKCLQSKQAAKTETTV | soluble
13 | MEASKYVGQGFQPPAEKDAVEFAKKHKDKIAKRGEQFFMDNFGLKVKATNVVGSGDGVEVFVHCDDHDIVFNASIPFDKSIIDSDSSLRSEDKGDDMSTLVGTVLSGFEYRAQKEKYDNLYKFFKENEKKYQYTGFTKEAINKTQNSGYENEYFYIVANIPTLQEYRKYYEPLIKKNNLNFKKGMKQARKGVGYKAAIEVHTTLFSRSSNFSKDKKLDDVIDLSESTKKLHLNFENTKIFLQLAKSTISTNRVNYSDNESIRIEVELEHHHHHH | not soluble
14 | MGSDKIHHHHHHMYLEAFTSHFNSIADSRQSAKVTYPLHDVLFVTLCGVIAGAEGWSEIHDYAAGHHTWFKEKGILTEGVPVDDTIARIISRIEPEQFRLCFANWMRAVHEMSDGHLIAIDGKTLRASYNREDRRSTIHMVNAFACANKVVLGQVKTANKSNEITAIPALLQLLDIEGALVSIDAMGCQTEIARQIVEQGGDYLLAVKVNQSSLHEAVVSAFSEARSNPLDGLVIEKNRGRIEARAYYVIPANQLQDNFPKWMKLNTLGMCLSYRHTKGKEAELTYRYYISSATLDEQLLANSVRGHWGIENSLHWVLDVSMKEDSCQIYQHHGAENWAMLRHISLNMLRAEPSKGSIPAKQKRAWMKPEYLESVLLAGLQLDEF | not soluble
15 | MSNSLEERLRANSSAFDGLLALIPAKYYYDEKSQEQWKAKKKTKEQSKNDKLKKLDPEQRDDETSSTLEVMKKKEKDAKPVVLPGEKFKHMKMQKQKEATSKVEGDSDLNVEVNDPMIIAPDEDEEEEEDIKVIFDDEGNEIPLESKKDTTEPDRSVEKKSITEEEKLQRKKNLEALRSKLQAKISDMKSKRKAPGSREAILAQRKRKEELKKRKRLESEQEQDQDEIASDSDMEDIDSDLENNSKKRFKKGKKDSEINADGVMFQNIIFDDGARATSDLQRLRKAGRTKGPAKNDVKSHLKLLEAKKNKMEAKDELEQIKQKEKEKWQKAMLQAEGIKIRDDEKLLRKAIKRKEAQKRKSAIEWSERKRVVEDTISERQKRREENLRIRKDNKGKKRNKQEKMKRKYVGSAVPKKRAGFEGRLKTGKKKGGPK | not soluble
16 | MGSDKIHHHHHHMNGTATGPRSSHFHWLLCALIVALPGCRDKPLREVIDRPVLFTEIADPQNASYGRFAGSIQPQHEVALGFRIAGRLATRHAEMGDRVRKGDLLATLDPSDQQNRLRARQAELSRARSAWQQLSDEQTRYQQLYTRGVGSRARLDQLNSDLRSQNALLDQASAAVQQAGDHLAYTRLTAEFDGLVTQWQTEVGQVMATGQAVVSLARPESREAVVDLPVGLLASLDDSRQIRVISQLDKQVSVIASVRQLAPQIDAGTRTQRVRLALQHIPDSLRLGSTVTVEISGNAPAFHELPASAVLARDGKDQVWVIDPSTSTLSPRAVQVLARKGGKVQVSGELHEGEKVVTAGVNGMQSGQKIRMQREVSL | not soluble
17 | MGSDKIHHHHHHMKNLQVVEKEFSSLPIIDISALVSGKGNLYSAASQIRQACRESGFFYIIGHGVDENLQQRLEELSRQFFAQDLETKLKIRMALAGIAWRGYFPVGGELTSGKPDLKEGIYFGTELPDEHPLVQAGTPMHGANLFPANMPQFGETVLEYIEAMTKLGHTLMTGIAMSLGLEESYFADRYTSDPLVLFRIFNYPPNLSPSDGNPIWGVGEHTDYGVLTILKQDDSGGLQVKSKSGWVAAPPVPGSFVCNIGDMLDKMTGGFYRSTPHRVQNQSQNHRLSFPFFFDPNFDVEVKPIELDNYSSE | not soluble
18 | MSLMASAVAEENAERSKEGFIEGSEVNLLLRNFYFNRDFRKGQSSPAGGGYTEEWVQGFMANFSSGFTQGTLGVGIDAFAQLGVRLDSGGGRSGAGGSVDLLPYDDQGRPQDDYSRAGGAVKLRWYGTVLRVGDVFPETPVIQYGNSRLFPSSFRGFTLVNDSLAKGLTLQAGKLNSMTQPNSTSGSDDFYSFYTGRRIDSPWVAYAGGDYQATEHWSVSLYGSRQKDAWDQYYAGTSFNYPLDDKLSLLGGANYYKVKDQGRQVMGELDNDIWSVRGGFAYGPHQVLLSYQRNNGDDDFDYLRQTDSIYLDNSIQYSDFNSPKERSLMLRYDLDMAAFGVPGLSFMTRYGKGWDADYSNANSVYMRTDANGNPLTNQGRWERDVEVKYVVQGGAAKDLAFRVRQATVRSDSFESDLDEVRLIVEYPLQVLEGHHHHHH | not soluble
